Changes are numbered by the printed parent chain. Names may count otherwise.
B1: LB5t-T16D.1d (designed binder)
chain: GPLGSEQVTIKENIYFEDGTVQDATFKGTFAEATAEAYRYADLLSKEHGKYTADLEDGGYTINIRFAG
B2: LB5t-T18H.1d (designed binder)
chain: B1 chain with D23T, T25H
B3: LB5t-T16A.1d (designed binder)
chain: B1 chain with D23A
B4: LB5t-A17H.1d (designed binder)
chain: B1 chain with D23T, A24H
B5: LB5t-T16H.1d (designed binder)
chain: B1 chain with D23H
B6: LB5t-T18D.1d (designed binder)
chain: B1 chain with D23T, T25D
B7: LB5t-T18Q.1d (designed binder)
chain: B1 chain with D23T, T25Q
B8: LB5t-Q15H.1d (designed binder)
chain: B1 chain with Q22H, D23T
B9: LB5t-T16L.1d (designed binder)
chain: B1 chain with D23L
B10: LB1t-Wild.1d (protein)
chain: VTIKANLIFANGSTQTAEFKGTFEKATSEAYAYADTLKKDNGEYTVDVADKGYTLNIKFA
B11: LB1t-E18D.1d (designed binder)
chain: B10 chain with E18D
B12: LB5t-T16H.4d (designed binder)
chain: KEETPETPETDSEEQVTIKENIYFEDGTVQHATFKGTFAEATAEAYRYADLLSKEHGKYTADLEDGGYTINIRFAGKEKTPEEPKEQVTIKENIYFEDGTVQHATFKGTFAEATAEAYRYADLLSKEHGKYTADLEDGGYTINIRFAGKEKTPEEPKEQVTIKENIYFEDGTVQHATFKGTFAEATAEAYRYADLLSKEHGKYTADLEDGGYTINIRFAGKEKTPEEPKEQVTIKENIYFEDGTVQHATFKGTFAEATAEAYRYADLLSKEHGKYTADLEDGGYTINIRFAGKKVDEKPEEC

target: aRSV-Fab (Fab fragment of anti-RSV monoclonal IgG Palivizumab, Synagis); assay: SPR (Biacore 3000), aRSV-Fab on CM5 chip, peptide flowed, 25 C, pH 7.4, 1:1 fit

Ka [M⁻¹] | koff [s⁻¹] | kon [M⁻¹ s⁻¹] | Binder
1.44e+07 | 0.0265 | 381000 | B1
1.17e+07 | 0.036 | 422000 | B2
1.87e+07 | 0.0225 | 421000 | B3
1.08e+06 | 0.0738 | 80000 | B4
2.69e+07 | 0.0159 | 428000 | B5
6.79e+06 | 0.0467 | 317000 | B6
1.26e+07 | 0.0296 | 373000 | B7
6.7e+06 | 0.0485 | 325000 | B8

target: aRSV-Fab (Fab fragment of anti-RSV monoclonal IgG Palivizumab, Synagis); assay: affinity chromatography, peptide on aRSV-Fab-immobilised column, linear pH gradient, pH at elution peak top

Dissociation pH [pH] | Binder
3.65 | B9
2.7 | B10
2.95 | B11

target: aRSV-Fab (Fab fragment of anti-RSV monoclonal IgG Palivizumab, Synagis); assay: affinity chromatography, aRSV-Fab on LB5t-T16H.4d-immobilised cellulose carrier, linear pH gradient 5.0 to 2.4, pH at elution peak top

Elution pH [pH] | Binder
3.66 | B12

target: aRSV-Fab (Fab fragment of anti-RSV monoclonal IgG Palivizumab, Synagis); assay: affinity chromatography, peptide on aRSV-Fab-immobilised column, linear pH gradient 5.5 to 2.5, pH at elution peak top

Dissociation pH [pH] | Binder
3.6 | B1
3.9 | B2
3.6 | B3
3.9 | B4
3.9 | B5
3.85 | B6
3.65 | B7
3.9 | B8
